Here are results for three substances from US9156883B2, “Binding molecules for human factor VIII and factor VIII-like proteins” (DYAX CORP., priority 1999, dated 2015).

Positions of bridges follow the written chain, without caps; N, C: chain ends. No end group written: not given here. *: point of attachment. NHNH2 = NN*

For this test, the target named is T1, native human factor VIII (nhfVIII) (Homo sapiens, UniProt P00451).
T1 construct: native human factor VIII (nhfVIII); purchased American Diagnostica, Inc. (Greenwich, Conn.) #408 nat
T1 sequence (P00451 20-1332 limits assumed): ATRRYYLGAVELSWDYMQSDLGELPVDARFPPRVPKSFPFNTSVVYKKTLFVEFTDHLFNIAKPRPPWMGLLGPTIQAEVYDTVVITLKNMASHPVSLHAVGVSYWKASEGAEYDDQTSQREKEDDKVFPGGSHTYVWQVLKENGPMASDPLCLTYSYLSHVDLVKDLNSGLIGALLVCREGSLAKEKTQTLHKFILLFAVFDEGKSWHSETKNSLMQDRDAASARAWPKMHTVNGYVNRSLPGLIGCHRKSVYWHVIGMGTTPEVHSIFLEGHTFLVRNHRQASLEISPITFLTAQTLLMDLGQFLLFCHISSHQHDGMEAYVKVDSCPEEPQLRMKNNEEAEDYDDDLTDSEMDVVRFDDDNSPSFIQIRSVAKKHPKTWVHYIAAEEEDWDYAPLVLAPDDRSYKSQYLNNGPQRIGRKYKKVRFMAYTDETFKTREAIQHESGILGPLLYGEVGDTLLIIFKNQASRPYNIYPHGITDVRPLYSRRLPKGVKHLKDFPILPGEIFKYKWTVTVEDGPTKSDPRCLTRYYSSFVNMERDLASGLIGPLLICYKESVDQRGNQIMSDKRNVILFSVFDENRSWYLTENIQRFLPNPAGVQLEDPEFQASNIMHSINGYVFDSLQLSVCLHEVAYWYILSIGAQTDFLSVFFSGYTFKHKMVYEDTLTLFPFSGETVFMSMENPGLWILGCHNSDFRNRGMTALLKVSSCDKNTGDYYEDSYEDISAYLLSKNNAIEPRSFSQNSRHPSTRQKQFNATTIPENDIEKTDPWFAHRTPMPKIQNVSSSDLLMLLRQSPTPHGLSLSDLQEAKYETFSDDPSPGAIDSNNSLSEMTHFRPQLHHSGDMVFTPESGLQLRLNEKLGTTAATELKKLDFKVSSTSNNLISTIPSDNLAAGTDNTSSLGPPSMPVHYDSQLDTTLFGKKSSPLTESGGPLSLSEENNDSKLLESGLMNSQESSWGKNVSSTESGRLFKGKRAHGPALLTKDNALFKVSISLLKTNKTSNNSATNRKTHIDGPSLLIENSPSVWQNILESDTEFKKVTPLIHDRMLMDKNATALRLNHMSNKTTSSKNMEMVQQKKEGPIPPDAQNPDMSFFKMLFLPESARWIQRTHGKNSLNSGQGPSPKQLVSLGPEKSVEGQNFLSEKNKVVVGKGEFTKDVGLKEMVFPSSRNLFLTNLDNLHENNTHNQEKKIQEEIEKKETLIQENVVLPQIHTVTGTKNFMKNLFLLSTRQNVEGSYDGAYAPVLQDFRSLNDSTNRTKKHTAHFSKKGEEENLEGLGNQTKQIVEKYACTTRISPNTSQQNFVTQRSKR
T1 sequence (P00451 1668-2351 limits assumed): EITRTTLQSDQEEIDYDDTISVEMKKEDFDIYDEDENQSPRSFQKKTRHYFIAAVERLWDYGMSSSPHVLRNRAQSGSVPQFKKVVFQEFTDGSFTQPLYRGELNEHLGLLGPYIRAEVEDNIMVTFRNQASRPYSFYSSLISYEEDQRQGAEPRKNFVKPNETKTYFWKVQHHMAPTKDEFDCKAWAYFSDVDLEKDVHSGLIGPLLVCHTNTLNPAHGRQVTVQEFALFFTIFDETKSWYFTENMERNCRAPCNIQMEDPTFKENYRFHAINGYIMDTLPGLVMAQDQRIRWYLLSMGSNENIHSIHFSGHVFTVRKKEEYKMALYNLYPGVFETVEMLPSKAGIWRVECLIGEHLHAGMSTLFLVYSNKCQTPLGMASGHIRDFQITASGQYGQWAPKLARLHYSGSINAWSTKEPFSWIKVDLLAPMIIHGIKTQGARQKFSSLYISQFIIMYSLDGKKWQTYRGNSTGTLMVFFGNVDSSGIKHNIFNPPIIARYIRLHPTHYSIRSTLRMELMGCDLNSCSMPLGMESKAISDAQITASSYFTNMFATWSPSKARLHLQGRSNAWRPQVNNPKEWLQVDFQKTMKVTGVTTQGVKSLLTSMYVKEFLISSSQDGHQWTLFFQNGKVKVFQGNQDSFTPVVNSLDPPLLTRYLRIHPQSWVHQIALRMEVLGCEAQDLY
Briefly: Comparative batch binding and elution of nhfVIII with immobilized polypeptide ligands. The settings on record: batch procedure. As to the method:
For these experiments, nhfVIII was obtained from American Diagnostica, Inc. (Greenwich, Conn.; product #408 nat) in the form of a lyophilized powder containing stabilizing agents. The nhfVIII was reconstituted according to the manufacturer's instructions in a reconstituting buffer (72 mM NH4OAc, pH 6.3, 360 mM NaCl, 0.04% Tween 80 (Buffer 1).
A commercial ELISA kit (IMUBIND fVIII ELISA kit, Product #884, American, Inc., Greenwich, Conn.) developed to detect factor VIII was used according to the manufacturer's specifications in order to detect both the REFACTO® and the nhfVIII targets. The kit employs a sandwich ELISA assay in which the target is captured by an immobilized monoclonal antibody and the captured target is detected with a second monoclonal antibody-horseradish peroxidase (HRP) conjugate. Addition of the peroxidase substrate and its subsequent reaction with the HRP produces a blue color (detected at 630 nm) which changes to yellow (detected at 450 nm) on addition of the 0.5N sulfuric acid stop solution. Color response is calibrated with factor VIII standards provided by the manufacturer.
Following the pH 2 washes, the beads were washed once in PBS containing 0.05% azide and stored at 4° C.
A sample of nhfVIII was diluted to a final concentration of 100 U/ml by addition of 2.32 ml H2O, 180 μl 1M NH4OAc, pH 6.3 (to 72 mM), and 1 μl Tween 80 (to 0.04%). REFACTO® stock solution was diluted to 100 U/ml in a modified Buffer 1, in which the NaCl concentration was reduced from […] to 330 mM.
Immobilized peptides were tested for binding to nhFVIII in comparison with REFACTO®. […] Next, nhfVIII and REFACTO® solutions were mixed with regenerated affinity beads bearing the CS-454, CS-456, and CS-458 ligands in a comparative batch purification procedure.

With “AEGTGDFCWVFAFDHCHDPGPEGGGS-NHNH2 (disulfide 8-16 (inferred)) [CS-458]”, the “binding and release of nhfVIII compared with a factor VIII-like polypeptide (in words)” value is “bind and release nhfVIII under similar conditions and with similar yields”.

As for “AEGTGDFGCSWLFPCPFDPGPEGGGS-NHNH2 (disulfide 9-15 (inferred)) [CS-456]”, the “binding and release of nhfVIII compared with a factor VIII-like polypeptide (in words)” value was “bind and release nhfVIII under similar conditions and with similar yields”.

As to “AEGTGDHLCGAWFRPCDADPGPEGGGS-NHNH2 (disulfide 9-16 (inferred)) [CS-454]”, the “binding and release of nhfVIII compared with a factor VIII-like polypeptide (in words)” value was “bind and release nhfVIII under similar conditions and with similar yields”.
